± gives the uncertainty stated by the source.
B1: Formin-binding protein 4, residues 593 to 636; numbered along this chain, Q8N3X1 (parent)
chain: EINATPKGWSCHWDRDHRRYFYVNEQSGESQWEFPDGEEEEEES

Variants of: B1
Experiment: abundance fitness (aPCA) (normalised: wild type 0, dead -1); higher = more abundant; growth selection in yeast, the domain comes from the species named
Settings: Homo sapiens

Row | Variant | abundance fitness
1 | W32E | -0.273 ± 0.086
2 | W32K | -0.246 ± 0.079
3 | W32R | -0.324 ± 0.064
4 | W32I | 0.001 ± 0.13
5 | P6S | -0.412 ± 0.39
6 | G37T | -0.026 ± 0.081
7 | G37A | -0.032 ± 0.067
8 | G37E | -0.095 ± 0.084
9 | G37I | -0.232 ± 0.14
10 | R19E | -0.406 ± 0.11
11 | R19V | -0.491 ± 0.077
12 | R19M | -0.21 ± 0.11
13 | R19G | -0.485 ± 0.07
14 | R19Y | -0.864 ± 0.21
15 | R19L | -0.423 ± 0.12
16 | Y20P | -0.143 ± 0.1
17 | Y20K | -0.319 ± 0.28
18 | Y20W | 0.072 ± 0.07
19 | Y20N | -0.059 ± 0.25
20 | Y20T | -0.277 ± 0.11
21 | Y20G | -0.605 ± 0.063

Row | Variant | abundance fitness
22 | Y20S | -0.353 ± 0.08
23 | E29C | -0.575 ± 0.18
24 | E29V | -0.126 ± 0.079
25 | E29I | -0.062 ± 0.13
26 | E29H | -0.016 ± 0.094
27 | E29A | -0.052 ± 0.081
28 | E29N | -0.421 ± 0.31
29 | E29M | -0.058 ± 0.096
30 | H12G | -0.379 ± 0.075
31 | H12P | -0.822 ± 0.15
32 | H12Y | -0.227 ± 0.15
33 | H12N | -0.287 ± 0.18
34 | H12Q | -0.432 ± 0.2
35 | H12V | -0.21 ± 0.074
36 | H12D | -0.646 ± 0.14
37 | H12S | -0.453 ± 0.1
38 | H12T | -0.407 ± 0.26
39 | H12K | -0.179 ± 0.097
40 | Y22M | -0.492 ± 0.16
41 | Y22A | -0.572 ± 0.079
42 | Y22E | -0.482 ± 0.2

Row | Variant | abundance fitness
43 | Y22N | -0.092 ± 0.29
44 | Y22G | -0.544 ± 0.081
45 | Y22V | -0.692 ± 0.075
46 | S10M | -0.389 ± 0.15
47 | S10G | -0.528 ± 0.095
48 | S10E | -0.381 ± 0.11
49 | S10K | -0.212 ± 0.15
50 | Q26R | -0.085 ± 0.067
51 | Q26C | 0.133 ± 0.25
52 | Q26F | -0.015 ± 0.29
53 | Q26P | -1.06 ± 0.24
54 | S27G | -0.458 ± 0.11
55 | S27P | -1.02 ± 0.19
56 | S27K | -0.485 ± 0.18
57 | S27A | -0.611 ± 0.08
58 | S27N | -0.453 ± 0.47
59 | S27M | -0.641 ± 0.12
60 | T5R | -0.345 ± 0.13
61 | T5V | 0.065 ± 0.17
62 | T5D | -0.463 ± 0.3
63 | T5C | 0.052 ± 0.15

Row | Variant | abundance fitness
64 | T5S | -0.81 ± 0.33
65 | T5Q | -0.358 ± 0.44
66 | T5L | 0.213 ± 0.084
67 | F34R | 0.081 ± 0.057
68 | F34T | 0.013 ± 0.09
69 | F34W | -0.13 ± 0.07
70 | F34V | -0.044 ± 0.07
71 | F34S | -0.282 ± 0.087
72 | F34C | -0.035 ± 0.096
73 | F34K | 0.222 ± 0.095
74 | F34D | -0.222 ± 0.1
75 | F34A | -0.059 ± 0.072
76 | K7T | -0.456 ± 0.27
77 | K7H | 0.125 ± 0.48
78 | R15S | 0.019 ± 0.093
79 | R15D | -0.007 ± 0.15
80 | R15M | -0.18 ± 0.11
81 | R15I | 0.373 ± 0.23
82 | R15Q | 0.139 ± 0.16
83 | R15P | -0.118 ± 0.1
